From the supplement of paper PMC10065799, “High-throughput profiling of sequence recognition by tyrosine kinases and SH2 domains using bacterial peptide display” (eLife, 2023)

How the values were obtained:
[1] = biological target: EPHB2 (UniProt P29323); assay: phosphorylation enrichment, bacterial display (enrichment ratio); higher = better substrate or ligand; peptides without Tyr show the background
[2] = tested on: AncSZ; assay: as above
[3] = tested on: c-Src; assay: as above
[4] = biological target: FGFR1 (UniProt P11362); assay: as above
[5] = biological target: MERTK (UniProt Q12866); assay: as above
[6] = tested on: Fer (mouse); assay: as above
[7] = biological target: Jak2 (UniProt O60674); assay: as above
[8] = biological target: FGFR3 (UniProt P22607); assay: as above
[9] = biological target: Hck (UniProt P08631); assay: as above
[10] = biological target: Fyn (UniProt P06241); assay: as above
[11] = biological target: EPHB1 (UniProt P54762); assay: as above
[12] = biological target: Fes (UniProt P07332); assay: as above
[13] = tested on: c-Abl (mouse); assay: as above
[14] = biological target: c-Src SH2; assay: SH2 binding enrichment of the phosphorylated peptide, bacterial display (enrichment ratio); higher = better substrate or ligand; peptides without Tyr show the background
[15] = biological target: SHP2-C SH2; assay: as above
[16] = biological target: Grb2 SH2 (UniProt P62993); assay: as above
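Throughout, for SH2 binding enrichment of the phosphorylated peptide, bacterial display: peptide library displayed on the E. coli surface as eCPX fusions, selected cells deep-sequenced, score is each peptide's frequency after selection divided by its frequency in the input.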
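Throughout, for phosphorylation enrichment, bacterial display: 11-residue human phosphosite peptides and single-mutation variants displayed on the E. coli surface, counted by deep sequencing, each peptide's frequency after selection divided by its frequency in the unselected input library; frequency after pTyr selection over input frequency; kinase dosed for 20-30% of maximal phosphorylation in three min.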

Fyn, sequence (P06241 whole entry, looked up): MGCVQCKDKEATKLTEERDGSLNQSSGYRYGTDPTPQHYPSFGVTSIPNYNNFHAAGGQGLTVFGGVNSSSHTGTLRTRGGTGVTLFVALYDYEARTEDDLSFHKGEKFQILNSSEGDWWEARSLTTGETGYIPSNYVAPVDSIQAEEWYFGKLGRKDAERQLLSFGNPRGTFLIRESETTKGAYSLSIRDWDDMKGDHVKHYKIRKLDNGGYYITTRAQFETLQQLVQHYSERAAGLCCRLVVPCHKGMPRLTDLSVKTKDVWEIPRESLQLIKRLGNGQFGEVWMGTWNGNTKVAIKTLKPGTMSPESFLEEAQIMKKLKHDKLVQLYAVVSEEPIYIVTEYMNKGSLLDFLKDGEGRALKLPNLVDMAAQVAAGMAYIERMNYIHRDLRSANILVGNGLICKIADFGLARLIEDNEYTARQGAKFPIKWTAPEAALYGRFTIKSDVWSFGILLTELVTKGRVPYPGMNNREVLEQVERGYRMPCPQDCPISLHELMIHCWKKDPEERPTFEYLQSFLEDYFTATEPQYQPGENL
EPHB1, sequence (P54762 whole entry, looked up): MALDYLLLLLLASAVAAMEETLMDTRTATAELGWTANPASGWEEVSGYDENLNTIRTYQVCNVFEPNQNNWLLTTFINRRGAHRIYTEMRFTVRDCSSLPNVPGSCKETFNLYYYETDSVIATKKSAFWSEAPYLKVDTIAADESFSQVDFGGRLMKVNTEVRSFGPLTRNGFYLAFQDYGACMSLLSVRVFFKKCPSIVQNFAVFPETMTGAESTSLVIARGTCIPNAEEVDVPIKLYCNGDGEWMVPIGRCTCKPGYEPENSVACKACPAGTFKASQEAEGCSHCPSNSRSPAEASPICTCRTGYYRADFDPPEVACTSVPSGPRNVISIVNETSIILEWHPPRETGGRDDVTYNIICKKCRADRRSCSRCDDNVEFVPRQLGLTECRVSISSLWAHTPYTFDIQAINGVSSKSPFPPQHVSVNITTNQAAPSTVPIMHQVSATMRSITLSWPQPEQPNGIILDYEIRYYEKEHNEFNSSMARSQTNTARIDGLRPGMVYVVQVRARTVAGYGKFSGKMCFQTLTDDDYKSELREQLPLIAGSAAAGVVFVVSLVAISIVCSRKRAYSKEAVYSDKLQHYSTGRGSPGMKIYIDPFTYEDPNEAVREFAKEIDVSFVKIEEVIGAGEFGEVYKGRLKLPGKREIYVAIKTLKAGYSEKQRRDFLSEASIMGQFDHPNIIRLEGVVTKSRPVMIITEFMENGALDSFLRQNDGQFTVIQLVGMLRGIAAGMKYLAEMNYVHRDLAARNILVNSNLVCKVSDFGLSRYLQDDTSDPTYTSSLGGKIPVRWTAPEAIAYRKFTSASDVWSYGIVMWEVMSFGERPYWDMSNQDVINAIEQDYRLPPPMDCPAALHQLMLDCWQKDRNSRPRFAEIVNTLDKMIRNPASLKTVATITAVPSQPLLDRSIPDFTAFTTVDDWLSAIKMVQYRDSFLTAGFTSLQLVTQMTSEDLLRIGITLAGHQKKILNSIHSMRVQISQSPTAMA
EPHB2, sequence (P29323 whole entry, looked up): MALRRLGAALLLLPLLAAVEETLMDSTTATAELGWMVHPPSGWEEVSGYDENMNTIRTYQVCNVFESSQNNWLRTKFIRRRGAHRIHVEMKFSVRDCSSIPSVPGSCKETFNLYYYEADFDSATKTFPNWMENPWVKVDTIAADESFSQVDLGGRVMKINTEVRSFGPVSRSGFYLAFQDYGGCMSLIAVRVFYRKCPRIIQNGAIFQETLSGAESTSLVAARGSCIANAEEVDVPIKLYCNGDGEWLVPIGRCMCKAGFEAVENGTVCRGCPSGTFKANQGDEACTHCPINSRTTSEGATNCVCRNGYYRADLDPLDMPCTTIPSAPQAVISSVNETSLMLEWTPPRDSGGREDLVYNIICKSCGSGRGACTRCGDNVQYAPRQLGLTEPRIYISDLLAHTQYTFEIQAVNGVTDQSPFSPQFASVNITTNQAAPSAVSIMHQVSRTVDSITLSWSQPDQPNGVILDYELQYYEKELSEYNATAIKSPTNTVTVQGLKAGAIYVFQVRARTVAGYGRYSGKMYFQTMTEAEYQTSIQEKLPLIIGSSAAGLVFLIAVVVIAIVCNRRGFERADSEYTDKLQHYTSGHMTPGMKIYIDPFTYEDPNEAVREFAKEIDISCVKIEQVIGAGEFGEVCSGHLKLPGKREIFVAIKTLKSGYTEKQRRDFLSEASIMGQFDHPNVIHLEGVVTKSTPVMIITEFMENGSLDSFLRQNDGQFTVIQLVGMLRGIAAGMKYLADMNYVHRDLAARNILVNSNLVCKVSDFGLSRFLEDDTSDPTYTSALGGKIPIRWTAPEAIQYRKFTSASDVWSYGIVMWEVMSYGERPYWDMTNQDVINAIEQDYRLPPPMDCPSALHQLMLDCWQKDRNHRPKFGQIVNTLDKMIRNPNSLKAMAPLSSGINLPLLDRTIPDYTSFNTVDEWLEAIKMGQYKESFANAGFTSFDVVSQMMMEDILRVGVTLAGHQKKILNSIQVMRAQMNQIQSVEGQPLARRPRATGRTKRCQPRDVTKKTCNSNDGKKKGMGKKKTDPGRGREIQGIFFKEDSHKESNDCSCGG
Hck, sequence (P08631 whole entry, looked up): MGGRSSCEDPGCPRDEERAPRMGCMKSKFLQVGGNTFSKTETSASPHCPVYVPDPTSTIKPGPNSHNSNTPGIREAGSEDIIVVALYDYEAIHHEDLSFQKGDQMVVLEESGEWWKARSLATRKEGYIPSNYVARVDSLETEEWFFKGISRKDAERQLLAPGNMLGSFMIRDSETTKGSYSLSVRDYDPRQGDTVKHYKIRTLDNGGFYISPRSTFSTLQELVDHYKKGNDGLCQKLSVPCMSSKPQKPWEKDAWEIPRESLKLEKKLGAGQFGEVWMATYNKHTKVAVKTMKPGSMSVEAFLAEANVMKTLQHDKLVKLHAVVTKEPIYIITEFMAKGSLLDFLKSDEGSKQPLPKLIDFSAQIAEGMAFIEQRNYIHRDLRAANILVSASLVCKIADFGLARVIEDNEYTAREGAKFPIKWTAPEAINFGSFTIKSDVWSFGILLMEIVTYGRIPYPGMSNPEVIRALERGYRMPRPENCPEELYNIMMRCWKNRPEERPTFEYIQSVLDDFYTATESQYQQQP
Fes, sequence (P07332 whole entry, looked up): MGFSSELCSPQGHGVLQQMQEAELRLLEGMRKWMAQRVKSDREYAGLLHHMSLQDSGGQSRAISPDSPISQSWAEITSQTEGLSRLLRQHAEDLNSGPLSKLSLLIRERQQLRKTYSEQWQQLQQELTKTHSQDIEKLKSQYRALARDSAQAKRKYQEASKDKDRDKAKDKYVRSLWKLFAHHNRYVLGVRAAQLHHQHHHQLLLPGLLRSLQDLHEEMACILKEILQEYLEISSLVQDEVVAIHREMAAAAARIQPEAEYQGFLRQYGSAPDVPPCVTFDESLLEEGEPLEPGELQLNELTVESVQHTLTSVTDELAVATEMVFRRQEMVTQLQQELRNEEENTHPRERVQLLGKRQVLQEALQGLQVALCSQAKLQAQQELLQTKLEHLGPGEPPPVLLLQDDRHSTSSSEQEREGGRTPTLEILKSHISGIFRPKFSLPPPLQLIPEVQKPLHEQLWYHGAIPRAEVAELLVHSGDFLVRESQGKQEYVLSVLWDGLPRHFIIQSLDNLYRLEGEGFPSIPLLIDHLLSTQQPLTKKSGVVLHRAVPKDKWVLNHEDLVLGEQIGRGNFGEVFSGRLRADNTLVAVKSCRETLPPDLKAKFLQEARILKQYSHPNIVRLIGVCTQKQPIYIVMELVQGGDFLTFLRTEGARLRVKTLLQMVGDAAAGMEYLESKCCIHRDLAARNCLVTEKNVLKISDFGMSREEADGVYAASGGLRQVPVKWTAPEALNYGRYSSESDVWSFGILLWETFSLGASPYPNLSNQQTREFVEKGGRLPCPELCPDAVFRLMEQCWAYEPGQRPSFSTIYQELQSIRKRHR
FGFR3, sequence (P22607 whole entry, looked up): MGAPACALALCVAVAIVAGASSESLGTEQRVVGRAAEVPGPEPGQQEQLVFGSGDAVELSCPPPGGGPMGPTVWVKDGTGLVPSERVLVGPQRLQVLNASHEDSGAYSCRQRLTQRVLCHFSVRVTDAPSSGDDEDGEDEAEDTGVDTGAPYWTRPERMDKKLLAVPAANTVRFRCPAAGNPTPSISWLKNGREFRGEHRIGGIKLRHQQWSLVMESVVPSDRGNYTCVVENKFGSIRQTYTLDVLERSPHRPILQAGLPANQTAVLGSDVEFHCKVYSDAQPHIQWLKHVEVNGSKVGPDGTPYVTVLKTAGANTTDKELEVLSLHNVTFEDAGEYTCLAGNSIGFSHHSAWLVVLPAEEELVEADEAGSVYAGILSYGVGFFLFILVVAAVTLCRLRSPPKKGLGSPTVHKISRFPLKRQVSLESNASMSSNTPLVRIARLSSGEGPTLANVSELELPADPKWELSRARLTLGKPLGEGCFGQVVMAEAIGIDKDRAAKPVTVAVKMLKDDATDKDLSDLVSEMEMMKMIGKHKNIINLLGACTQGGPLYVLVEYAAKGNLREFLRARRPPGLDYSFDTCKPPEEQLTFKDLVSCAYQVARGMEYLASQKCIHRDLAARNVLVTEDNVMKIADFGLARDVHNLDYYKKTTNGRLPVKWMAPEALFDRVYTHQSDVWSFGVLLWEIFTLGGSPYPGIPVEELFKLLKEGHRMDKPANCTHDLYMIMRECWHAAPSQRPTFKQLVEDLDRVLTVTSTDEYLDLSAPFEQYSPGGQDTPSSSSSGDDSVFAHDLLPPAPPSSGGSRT

Sequence | SH2 binding enrichment [14] | SH2 binding enrichment [15] | SH2 binding enrichment [16] | phosphorylation enrichment [1] | phosphorylation enrichment [2] | phosphorylation enrichment [3] | phosphorylation enrichment [4] | phosphorylation enrichment [5] | phosphorylation enrichment [6] | phosphorylation enrichment [7] | phosphorylation enrichment [8] | phosphorylation enrichment [9] | phosphorylation enrichment [10] | phosphorylation enrichment [11] | phosphorylation enrichment [12] | phosphorylation enrichment [13]
IEEGTYGVAFR [CDK11B_Y449_V452A_YF] | 0.374 | 0.51 | 0.612 | 2.24 | 1.32 | 5.45 | 0.465 | 1.6 | 4.45 | 0.859 | 0.915 | 6.06 | 7.47 | 0.888 | 1.11 | 0.982
NVKGIYAVADV [GSR_Y371_G374A] | 1.44 | 0.599 | 0.826 | 3.77 | 0.977 | 3.12 | 0.506 | 6.08 | 2.06 | 0.678 | 0.687 | 3.79 | 3.67 | 2.06 | 0.82 | 16.5
RDWSHYFKIIE [KRT18_Y129] | 0.479 | 0.436 | 0.776 | 1.08 | 1.46 | 0.705 | 0.687 | 0.296 | 0.412 | 1.35 | 0.997 | 0.57 | 0.793 | 0.824 | 1.72 | 0.823
AAPAAYDAADT [GAMT_Y27] | 1.11 | 0.654 | 0.839 | 0.5 | 1.1 | 0.513 | 0.529 | 0.461 | 0.526 | 0.857 | 0.683 | 0.495 | 0.522 | 0.479 | 0.97 | 0.782
VDGSVYKLPPS [GCK_Y413_H416P] | 0.426 | 0.525 | 0.744 | 0.563 | 0.728 | 1.46 | 0.523 | 0.5 | 0.514 | 0.598 | 0.492 | 0.61 | 2.81 | 0.429 | 0.795 | 0.661

The next lines start with results.

SH2 binding enrichment [14] | SH2 binding enrichment [15] | SH2 binding enrichment [16] | Sequence | phosphorylation enrichment [1] | phosphorylation enrichment [2] | phosphorylation enrichment [3] | phosphorylation enrichment [4] | phosphorylation enrichment [5] | phosphorylation enrichment [6] | phosphorylation enrichment [7] | phosphorylation enrichment [8] | phosphorylation enrichment [9] | phosphorylation enrichment [10] | phosphorylation enrichment [11] | phosphorylation enrichment [12] | phosphorylation enrichment [13]
0.715 | 0.8 | 0.955 | VKGGAYYPVTV [MCCC2_Y145] | 0.551 | 0.582 | 0.445 | 5.39 | 4.41 | 0.819 | 2.65 | 3.75 | 0.607 | 0.423 | 0.331 | 0.822 | 0.609
0.507 | 0.661 | 0.961 | EVASVYQSFQP [MAVS_Y92_YF] | 0.846 | 1.22 | 8.85 | 0.604 | 2.03 | 5.55 | 1.06 | 0.991 | 11 | 13.6 | 0.785 | 1.2 | 2.19
0.638 | 0.982 | 0.848 | KILGTYFETGS [PAX2_Y72_R71T_YF] | 0.47 | 0.833 | 0.585 | 0.814 | 0.5 | 0.467 | 0.717 | 0.793 | 0.485 | 0.577 | 0.491 | 0.867 | 0.668
